Source: PMC3150277, “Crystal Structure of PrgI-SipD: Insight into a Secretion Competent State of the Type Three Secretion System Needle Tip and its Interaction with Host Ligands” (PLoS Pathogens, 2011)

Target: T1, SipD 127-343, as it stands in the PrgI-SipDΔD1 fusion protein (S. enterica serovar typhimurium strain …, UniProt Q56026 127-343)
T1 construct: SipD of S. enterica serovar typhimurium strain SL1344, amino acids 127 to 343; In the crystal it is joined on one chain, C-terminal of PrgI and the linker Gly-Gly-Ser-Gly-Gly; also called SipDΔD1 (in the fusion); source: E. coli BL21(DE3), purified as part of the PrgI-SipDΔD1 fusion protein
T1 sequence: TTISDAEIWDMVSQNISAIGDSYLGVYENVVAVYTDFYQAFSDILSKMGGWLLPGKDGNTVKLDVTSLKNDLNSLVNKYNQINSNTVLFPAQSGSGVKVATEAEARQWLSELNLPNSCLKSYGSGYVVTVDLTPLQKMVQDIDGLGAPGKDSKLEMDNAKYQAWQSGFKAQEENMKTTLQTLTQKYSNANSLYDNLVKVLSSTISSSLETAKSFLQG
Assay: crystal structure; PrgI-SipDΔD1 fusion protein, X-ray, 2.4 Å apo and 2.19 Å soaked with deoxycholate; two copies in the asymmetric unit
Settings: both partners purified

B1: PrgI, wildtype, as it stands in the PrgI-SipDΔD1 fusion protein (natural protein)
chain: MATPWSGYLDDVSAKFDTGVDNLQTQVTEALDKLAAKPSDPALLAAYQSKLSEYNLYRNAQSNTVKVFKDIDAAIIQNFR
notes: wildtype PrgI of S. enterica serovar typhimurium strain SL1344; In the crystal it is joined on one chain through Gly-Gly-Ser-Gly-Gly to SipD 127-343; also called needle subunit PrgI; source: E. coli BL21(DE3), purified as part of the PrgI-SipDΔD1 fusion protein; not shown: His-tag, N-terminal, cleaved
B1: binds.
